Experimental data reported in patent US20240369568A1 (GlaxoSmithKline, published 2024).

T1: BCMA (the 'Antigen' of the SPR antigen binding assay) (human, UniProt Q02223 1-54, limits assumed)
T1 construct: also called human BCMA
T1 sequence (looked up): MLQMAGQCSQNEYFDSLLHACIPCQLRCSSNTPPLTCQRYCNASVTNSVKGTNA

B1: purified DL8 drug-load variant of belantamab mafodotin (antibody, human IgG1, kappa)
heavy: not shown
light: not shown
modifications: mcMMAF on each LC C214 (sequential numbering); mcMMAF on HC C224, HC C230 and HC C233 of both heavy chains (sequential numbering)
notes: Antibody drug conjugate, drug load of eight
B2: purified DL4a drug-load variant of belantamab mafodotin (antibody, human IgG1, kappa)
heavy: not shown
light: not shown
modifications: mcMMAF on each LC C214 (sequential numbering); mcMMAF on each HC C224 (sequential numbering)
notes: Antibody drug conjugate, drug load of four
B3: purified DL4b drug-load variant of belantamab mafodotin (antibody, human IgG1, kappa)
heavy: not shown
light: not shown
modifications: mcMMAF on HC C230 and HC C233 of both heavy chains (sequential numbering)
notes: Antibody drug conjugate, drug load of four at the hinge
B4: purified DL2 drug-load variant of belantamab mafodotin (antibody, human IgG1, kappa)
heavy: not shown
light: not shown
modifications: mcMMAF on LC C214 of one of the two light chains (sequential numbering); mcMMAF on HC C224 of one of the two heavy chains (sequential numbering)
notes: Antibody drug conjugate, drug load of two; also called DL2a
B5: purified DL0 drug-load variant of belantamab mafodotin (unconjugated belantamab) (antibody, human IgG1, kappa)
heavy: not shown
light: not shown
notes: HIC-purified fraction of belantamab mafodotin

What was measured:
Experiment in all cases: SPR, release and stability method, specific binding activity
[1] = target: T2, FcγRIIIa (UniProt P08637 17-208, limits assumed)
T2 construct: also called FcyRIIIa
Description: (§1) Antigen, FcγRIIIa, and FcRn specific binding activity of the purified DL variants was measured using SPR. Antigen, FcγRIIIa and FcRN analyses were performed using a release and stability surface plasmon resonance (SPR) method. The specific binding activities measured were between 80-110% for the purified DL variants. […] Despite the trend observed, the decrease in binding activity as a function of drug load is minimal and remains within specification acceptance criteria. It has been observed that as the DAR increases, there is no significant change in antigen FcγRIIIa binding by SPR and antibody-dependent cell-mediated cytotoxicity (ADCC) activity.

[2] = target: T3, FcRn (UniProt P55899 24-297; P61769 21-119, limits assumed)
T3 construct: also called FcRNn
Description: as §1

[3] = target: T1, BCMA (the 'Antigen' of the SPR antigen …)
Description: as §1

T3 sequence (P55899 24-297 limits assumed, chain 1 of 2): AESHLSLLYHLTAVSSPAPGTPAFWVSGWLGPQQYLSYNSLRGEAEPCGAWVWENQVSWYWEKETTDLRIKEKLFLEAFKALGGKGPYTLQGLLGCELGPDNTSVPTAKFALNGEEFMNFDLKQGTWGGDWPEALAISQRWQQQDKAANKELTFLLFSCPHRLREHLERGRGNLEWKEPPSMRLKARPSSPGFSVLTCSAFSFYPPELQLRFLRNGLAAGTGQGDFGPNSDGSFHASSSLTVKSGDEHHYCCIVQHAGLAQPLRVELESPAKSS
T3 sequence (P61769 21-119 limits assumed, chain 2 of 2): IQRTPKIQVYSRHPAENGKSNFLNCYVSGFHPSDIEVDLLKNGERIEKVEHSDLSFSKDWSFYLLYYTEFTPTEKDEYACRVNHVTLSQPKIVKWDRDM
T2 sequence (P08637 17-208 limits assumed): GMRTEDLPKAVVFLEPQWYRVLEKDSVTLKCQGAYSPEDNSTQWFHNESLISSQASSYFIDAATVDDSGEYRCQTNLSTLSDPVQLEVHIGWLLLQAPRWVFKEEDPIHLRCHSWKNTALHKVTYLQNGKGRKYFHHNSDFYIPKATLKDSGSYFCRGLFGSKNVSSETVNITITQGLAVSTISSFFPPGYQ

Binder	FcyRIIIa Binding (%) (specific binding activity) [1]	FcRNn Binding (%) (specific binding activity) [2]	Antigen Binding (%) (specific binding activity) [3]
B1	82	93	86
B2	103	102	95
B3	91	99	90
B4	104	109	99
B5	110	108	103
